Drawing on paper PMC7904446 (Cell Host & Microbe, 2021), this text covers Kd for four molecules.

B1: ZDY20 Fab (Fab, V domains shown)
VH: EVQLVETGGGLIQPGGSLRLSCAASGITVSSNYMSWVRQAPGKGLEWVSVIYSGGSTYYADSVKGRFTISRDNSKNTLYLQMNSLRAEDTAVYYCAREGLGDGYNAIAGLGFDLWGRGTLVTVSS
VL: DIVMTQSPSSLSASVGDSVTITCQASQDINNYLNWYQQKPGRAPELLINDASNLEAGVPSRFSGSGSGTDFTLTISSLQTEDFATYYCQQYGSLPYTFGQGTKLDIR
B2: ZDY28 Fab (Fab, V domains shown)
VH: EVQLVQSGGGVVQPGRSLRLSCAASGFTFSSYGMHWVRQAPGKGLEWVAVISYDGSNKYYADSVKGRFTISRDNSKNTLYLQMNSLRAEDTAVYYCASRSTVVPAAIFAFDIWGQGTMVTVSS
VL: not shown
B3: ZDY49 Fab (Fab, V domains shown)
VH: B2 VH with Q6E
VL: not shown
B4: ZDY95 Fab (Fab, V domains shown)
VH: B2 VH
VL: not shown

Positions count from the first letter of the chain named.

Broadly, the Kd is the concentration at which binding is half-saturated.

The assay addresses recombinant SARS-CoV-2 spike protein receptor binding domain (RBD) (SARS-CoV-2, UniProt P0DTC2, biotin (the listed product is biotinylated)). The experiment in a line: SPR. For orientation: SPR reads the build-up and loss of mass on a sensor chip optically.
Take B1: the equilibrium dissociation constant (Kd) worked out at 74.9 nM.

Turning to B2, the Kd came out at 19.2 nM.

As to B3, the Kd was 42.3 nM.

Turning to B4, the Kd was determined as 26.2 nM.
